According to the supplement of paper PMC7877785:
± gives the uncertainty stated by the source.

Experiment: self-splicing fitness, log relative to wild type (ln ratio); higher = more splicing; Tetrahymena group I intron in knt gene, E. coli kanamycin selection, DiMSum; sequences stand for … in CUCUCU…GGAGGGAAAAGUUAUCAGGCAUGCACCUGGUAGCUAGUCUUUAAACCAAUAGAUUGCAUCGGUUUAAAAGGCAAGACCGUCAAAUUGCGGGAAAGGGGUCAACAGCCGUUCAGUACCAAGUCUCAGGGGAAACUUUGAGAUGGCCUUGCAAAGGGUAUGGUAAUAAGCUGACGGACAUGGUCCUAACCACGCAGCCAAGUCCUAAGUCAACAGAUCUUCUGUUGAUAUGGAUGCAGUUCACAGACUAAAUGUCGGUCGGGGAAGAUGUAUUCUUCUCAUAAGAUAUAGUCGGACCUCUCCUUAAUGGGAGCUAGCGGAUGAAGUGAUGCAACACUGGAGCCGCUGGGAACUAAUUUGUAUGCGAAAGUAUAUUGAUUAGUUUUGGAGUACUCGUGGUCG
Outline: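 Colonies from six replicate transformations of E. coli BL21(DE3) were pooled and amplicon-sequenced on an Illumina HiSeq 2500. The library placed an intron with all eight P1ex-region nucleotides randomised inside the knt kanamycin-resistance gene on pET-22b(+), and cells grew overnight at 37°C or 30°C on LB agar with or without 25 μg/mL kanamycin (plus 100 μg/mL carbenicillin, 50 μM IPTG, 0.2% rhamnose). Fitness is the DiMSum error-weighted combination of wild-type-normalised replicate fold changes, kanamycin versus none.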

Row | Sequence | self-splicing fitness (ln) (30 °C) | self-splicing fitness (ln) (37 °C)
1 | UGACAGCAAUAUUACGAGAG | -3.08 ± 0.14 | -1.75 ± 0.11
2 | UGACAGCAAUAUUACGAGUA | -2.37 ± 0.17 | -0.712 ± 0.11
3 | UGACAGCAAUAUUACGAGUC | -3.94 ± 0.23 | -3.33 ± 0.32
4 | UGACAGCAAUAUUACGCAUG | -1.03 ± 0.055 | -0.328 ± 0.061
5 | UGACAGCAAUAUUACGCGAA | -1.32 ± 0.12 | -0.476 ± 0.14
6 | UGACAGCAAUAUUACGGAGA | -3.83 ± 0.29 | -1.98 ± 0.15
7 | UGACAGCAAUAUUACGGGGG | -2.61 ± 0.19 | -2.93 ± 0.2
8 | UGACAGCAAUAUUACGGUGA | -0.731 ± 0.052 | 0.000318 ± 0.071
9 | UGACAGCAAUAUUACGUAGU | -3 ± 0.17 | -1.22 ± 0.14
10 | UGACAGCAAUAUUACGUCAG | -2.12 ± 0.096 | -1.75 ± 0.11
11 | UGACAGCAAUAUUACGUCCU | -0.124 ± 0.076 | 0.379 ± 0.099
12 | UGACAGCAAUAUUACGUCUA | -0.75 ± 0.09 | -0.464 ± 0.098
13 | UGACAGCAAUAUUACGUGCC | -1.3 ± 0.12 | -1.58 ± 0.15
14 | UGACAGCAAUAUUACGUGUC | -3.44 ± 0.16 | -2.98 ± 0.16
15 | UGACAGCAAUAUUACGUUGC | -3.03 ± 0.2 | -2.89 ± 0.23
16 | UGAGAGCAAUAUUACGAAAU | -2.66 ± 0.22 | -1.75 ± 0.32
17 | UGAGAGCAAUAUUACGACGC | -1.61 ± 0.35 | –
18 | UGAGAGCAAUAUUACGAUCU | -2.49 ± 0.45 | -1.1 ± 0.45
19 | UGAGAGCAAUAUUACGAUGU | -3.27 ± 0.25 | –
20 | UGAGAGCAAUAUUACGCAAC | – | -1.88 ± 0.47
21 | UGAGAGCAAUAUUACGCAAU | – | -3 ± 0.43
22 | UGAGAGCAAUAUUACGCACG | -2.77 ± 0.19 | -0.671 ± 0.2
23 | UGAGAGCAAUAUUACGCAGA | -3.1 ± 0.34 | –
24 | UGAGAGCAAUAUUACGCGAA | -4.25 ± 0.4 | -1.53 ± 0.28
25 | UGAGAGCAAUAUUACGCGUU | -3.23 ± 0.2 | -3.69 ± 0.34

Row | Sequence | self-splicing fitness (ln) (30 °C) | self-splicing fitness (ln) (37 °C)
26 | UGAGAGCAAUAUUACGGAUA | – | -2.5 ± 0.26
27 | UGAGAGCAAUAUUACGGCAA | -1.61 ± 0.33 | -1.15 ± 0.18
28 | UGAGAGCAAUAUUACGGGAG | -3.96 ± 0.29 | -1.93 ± 0.21
29 | UGAGAGCAAUAUUACGGGCG | -2.04 ± 0.21 | -0.434 ± 0.19
30 | UGAGAGCAAUAUUACGGUGC | -2.02 ± 0.21 | –
31 | UGAGAGCAAUAUUACGGUGG | -3.4 ± 0.17 | -2.82 ± 0.2
32 | UGAGAGCAAUAUUACGUCCA | -1.04 ± 0.14 | -0.218 ± 0.17
33 | UGAGAGCAAUAUUACGUUGC | -2.35 ± 0.22 | -1.06 ± 0.33
34 | UGAUAGCAAUAUUACGAACA | -0.502 ± 0.18 | 0.324 ± 0.26
35 | UGAUAGCAAUAUUACGACGA | -0.476 ± 0.16 | 0.0569 ± 0.18
36 | UGAUAGCAAUAUUACGAGCC | -3.7 ± 0.47 | –
37 | UGAUAGCAAUAUUACGAUAA | -2.12 ± 0.16 | -0.841 ± 0.17
38 | UGAUAGCAAUAUUACGAUGU | – | -2.04 ± 0.34
39 | UGAUAGCAAUAUUACGAUUG | -0.719 ± 0.12 | -0.301 ± 0.15
40 | UGAUAGCAAUAUUACGCACA | 0.0791 ± 0.086 | -0.216 ± 0.1
41 | UGAUAGCAAUAUUACGCACU | -0.651 ± 0.14 | -0.218 ± 0.14
42 | UGAUAGCAAUAUUACGCCGG | -1.5 ± 0.22 | 0.564 ± 0.23
43 | UGAUAGCAAUAUUACGCGUG | -1.18 ± 0.072 | -0.0417 ± 0.078
44 | UGAUAGCAAUAUUACGGACC | -1.26 ± 0.26 | –
45 | UGAUAGCAAUAUUACGGCAA | -1.36 ± 0.15 | -0.418 ± 0.15
46 | UGAUAGCAAUAUUACGGCUU | -1.2 ± 0.19 | 0.584 ± 0.17
47 | UGAUAGCAAUAUUACGGGAG | -3.64 ± 0.29 | -2.19 ± 0.21
48 | UGAUAGCAAUAUUACGGUAA | – | -1.62 ± 0.35
49 | UGAUAGCAAUAUUACGGUCC | -0.857 ± 0.1 | 0.318 ± 0.14
50 | UGAUAGCAAUAUUACGGUUA | -0.585 ± 0.067 | -0.467 ± 0.085

Row | Sequence | self-splicing fitness (ln) (30 °C) | self-splicing fitness (ln) (37 °C)
51 | UGAUAGCAAUAUUACGUAAC | -3.41 ± 0.17 | -2.76 ± 0.22
52 | UGAUAGCAAUAUUACGUCAA | -2.44 ± 0.18 | -0.767 ± 0.16
53 | UGAUAGCAAUAUUACGUCCA | 0.015 ± 0.09 | 0.154 ± 0.12
54 | UGAUAGCAAUAUUACGUCCU | -0.302 ± 0.07 | 0.376 ± 0.1
55 | UGAUAGCAAUAUUACGUCGG | -1.4 ± 0.12 | -0.72 ± 0.12
56 | UGAUAGCAAUAUUACGUUCG | -0.432 ± 0.076 | 0.4 ± 0.1
57 | UGCAAGCAAUAUUACGAAGU | -3 ± 0.49 | –
58 | UGCAAGCAAUAUUACGAAUC | -3.56 ± 0.29 | –
59 | UGCAAGCAAUAUUACGAAUU | -2.91 ± 0.14 | -3.01 ± 0.23
60 | UGCAAGCAAUAUUACGACAC | -2.23 ± 0.24 | -1.35 ± 0.21
61 | UGCAAGCAAUAUUACGACUU | -2.34 ± 0.1 | -0.599 ± 0.11
62 | UGCAAGCAAUAUUACGAGGG | -3.56 ± 0.23 | -1.77 ± 0.17
63 | UGCAAGCAAUAUUACGAUAA | -0.8 ± 0.1 | -0.087 ± 0.12
64 | UGCAAGCAAUAUUACGAUUC | -3.54 ± 0.32 | -1.31 ± 0.21
65 | UGCAAGCAAUAUUACGCCCA | -0.543 ± 0.14 | 0.796 ± 0.23
66 | UGCAAGCAAUAUUACGCGAU | -3.34 ± 0.17 | -2.15 ± 0.2
67 | UGCAAGCAAUAUUACGCGCA | -2.17 ± 0.23 | -1.86 ± 0.29
68 | UGCAAGCAAUAUUACGCGUG | -3.54 ± 0.14 | -3.15 ± 0.2
69 | UGCAAGCAAUAUUACGGGAC | -4 ± 0.37 | –
70 | UGCAAGCAAUAUUACGGGCC | -1.31 ± 0.12 | -1.26 ± 0.14
71 | UGCAAGCAAUAUUACGGGUU | -2.62 ± 0.095 | -1.23 ± 0.093
72 | UGCAAGCAAUAUUACGGUGG | -2.3 ± 0.074 | -1.21 ± 0.085
73 | UGCAAGCAAUAUUACGUAAG | -2.75 ± 0.13 | -2.64 ± 0.2
74 | UGCAAGCAAUAUUACGUAAU | -1.85 ± 0.089 | -1.86 ± 0.13
75 | UGCAAGCAAUAUUACGUACC | -2.18 ± 0.16 | -1.02 ± 0.23

Row | Sequence | self-splicing fitness (ln) (30 °C) | self-splicing fitness (ln) (37 °C)
76 | UGCAAGCAAUAUUACGUCCC | -1.37 ± 0.28 | -0.65 ± 0.24
77 | UGCAAGCAAUAUUACGUCUC | -1.76 ± 0.12 | -2.67 ± 0.25
78 | UGCAAGCAAUAUUACGUCUU | -4.52 ± 0.31 | -0.686 ± 0.1
79 | UGCAAGCAAUAUUACGUGUA | -1.96 ± 0.073 | -1.35 ± 0.084
80 | UGCAAGCAAUAUUACGUUGA | -2.47 ± 0.1 | -1.32 ± 0.11
81 | UGCAAGCAAUAUUACGUUGC | -3.3 ± 0.31 | -3.31 ± 0.39
82 | UGCCAGCAAUAUUACGACCA | 0.429 ± 0.1 | 0.0668 ± 0.13
83 | UGCCAGCAAUAUUACGAGAG | -4.28 ± 0.21 | -2.56 ± 0.14
84 | UGCCAGCAAUAUUACGAGCG | -0.919 ± 0.066 | -0.309 ± 0.079
85 | UGCCAGCAAUAUUACGAGGA | -1.49 ± 0.17 | -2.37 ± 0.22
86 | UGCCAGCAAUAUUACGCGCA | -2.51 ± 0.28 | -1.06 ± 0.16
87 | UGCCAGCAAUAUUACGCGCC | -1.15 ± 0.17 | -0.705 ± 0.23
88 | UGCCAGCAAUAUUACGCUGA | -3.01 ± 0.19 | -2.21 ± 0.21
89 | UGCCAGCAAUAUUACGCUUU | -2.03 ± 0.079 | -1.76 ± 0.074
90 | UGCCAGCAAUAUUACGGACC | -0.869 ± 0.2 | 0.326 ± 0.23
91 | UGCCAGCAAUAUUACGGACG | -0.337 ± 0.06 | -0.0244 ± 0.076
92 | UGCCAGCAAUAUUACGGCCA | -0.44 ± 0.076 | -0.0136 ± 0.086
93 | UGCCAGCAAUAUUACGGCCU | -0.579 ± 0.1 | -0.213 ± 0.12
94 | UGCCAGCAAUAUUACGGGGA | -1.8 ± 0.087 | -0.863 ± 0.11
95 | UGCCAGCAAUAUUACGGGUC | -3.53 ± 0.23 | -2.34 ± 0.18
96 | UGCCAGCAAUAUUACGUAAG | -2 ± 0.067 | -1.24 ± 0.083
97 | UGCCAGCAAUAUUACGUAGA | -1.45 ± 0.056 | -0.504 ± 0.065
98 | UGCCAGCAAUAUUACGUAGC | -3.9 ± 0.37 | -1.64 ± 0.17
99 | UGCCAGCAAUAUUACGUCCU | -1.6 ± 0.14 | 0.244 ± 0.14
